Key:
[1] = target: mouse IgM B cell receptor on primary murine B cells (mouse); test: cell-based or functional assay
mouse IgM = mouse IgM (mouse, UniProt P01872 1-454); test: IgM binding ELISA, mIgM coated on plate
mouse IgM, sequence (P01872 whole entry): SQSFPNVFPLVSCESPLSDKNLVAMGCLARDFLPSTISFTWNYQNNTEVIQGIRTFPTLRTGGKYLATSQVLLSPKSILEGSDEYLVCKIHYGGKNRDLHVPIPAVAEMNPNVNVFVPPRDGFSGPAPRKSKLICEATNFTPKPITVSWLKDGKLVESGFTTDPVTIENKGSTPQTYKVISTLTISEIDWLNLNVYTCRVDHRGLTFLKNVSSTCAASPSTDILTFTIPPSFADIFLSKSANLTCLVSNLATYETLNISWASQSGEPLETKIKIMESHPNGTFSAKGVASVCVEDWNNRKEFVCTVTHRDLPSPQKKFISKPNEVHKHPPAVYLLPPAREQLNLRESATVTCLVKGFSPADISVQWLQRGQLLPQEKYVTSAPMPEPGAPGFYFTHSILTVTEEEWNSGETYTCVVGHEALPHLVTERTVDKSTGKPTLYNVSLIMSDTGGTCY

Row | Binder | ^3H incorporation, AM14 TLR9-/- B cells [1] | ^3H incorporation, AM14 WT B cells [1] | EC50 (mouse IgM)
1 | DVD3751 (bispecific antibody, human IgG1, kappa, Four-chain DVD-Ig) heavy: not shown light: DVVMTQTPLSLPVSLGDQASISCRSSQSLVHSNGNTYLHWYLQKPGQSPKLLIYKVSNRFSGVPDRFSGSGSGTDFTLKISRVEAEDLGAYFCSQSTHVPYTFGGPTRLEIKRGGSGGGGSGNTVMTQSPTSMFISVGDRVTMNCKASQNVGSDVDWYQQKTGQSPKLLISGTSNRYTGVPDRFTGSGSGTDFTLTISNMQAEDLAVYYCLQYNYNPTFGAGTKLELKRTVAAPSVFIFPPSDEQLKSGTASVVCLLNNFYPREAKVQWKVDNALQSGNSQESVTEQDSKDSTYSLSSTLTLSKADYEKHKVYACEVTHQGLSSPVTKSFNRGEC | 1180 | 35600 | 0.191 µg/mL
2 | DVD3755 (bispecific antibody, human IgG1, kappa, Four-chain DVD-Ig) heavy: not shown light: DVVMTQTPLSLPVSLGDQASISCRSSQSLVHSNGNTYLHWYLQKPGQSPKLLIYKVSNRFSGVPDRFSGSGSGTDFTLKISRVEAEDLGAYFCSQSTHVPYTFGGPTRLEIKRTVAAPNTVMTQSPTSMFISVGDRVTMNCKASQNVGSDVDWYQQKTGQSPKLLISGTSNRYTGVPDRFTGSGSGTDFTLTISNMQAEDLAVYYCLQYNYNPTFGAGTKLELKRTVAAPSVFIFPPSDEQLKSGTASVVCLLNNFYPREAKVQWKVDNALQSGNSQESVTEQDSKDSTYSLSSTLTLSKADYEKHKVYACEVTHQGLSSPVTKSFNRGEC | 402 | 8500 | 0.0971 µg/mL
3 | DVD3756 (bispecific antibody, human IgG1, kappa, Four-chain DVD-Ig) heavy: not shown light: NTVMTQSPTSMFISVGDRVTMNCKASQNVGSDVDWYQQKTGQSPKLLISGTSNRYTGVPDRFTGSGSGTDFTLTISNMQAEDLAVYYCLQYNYNPTFGAGTKLELKRGGSGGGGSGDVVMTQTPLSLPVSLGDQASISCRSSQSLVHSNGNTYLHWYLQKPGQSPKLLIYKVSNRFSGVPDRFSGSGSGTDFTLKISRVEAEDLGAYFCSQSTHVPYTFGGPTRLEIKRTVAAPSVFIFPPSDEQLKSGTASVVCLLNNFYPREAKVQWKVDNALQSGNSQESVTEQDSKDSTYSLSSTLTLSKADYEKHKVYACEVTHQGLSSPVTKSFNRGEC | 459 | 7790 | 0.0331 µg/mL
4 | DVD3757 (bispecific antibody, human IgG1, kappa, Four-chain DVD-Ig) heavy: not shown light: NTVMTQSPTSMFISVGDRVTMNCKASQNVGSDVDWYQQKTGQSPKLLISGTSNRYTGVPDRFTGSGSGTDFTLTISNMQAEDLAVYYCLQYNYNPTFGAGTKLELKRTVAAPDVVMTQTPLSLPVSLGDQASISCRSSQSLVHSNGNTYLHWYLQKPGQSPKLLIYKVSNRFSGVPDRFSGSGSGTDFTLKISRVEAEDLGAYFCSQSTHVPYTFGGPTRLEIKRTVAAPSVFIFPPSDEQLKSGTASVVCLLNNFYPREAKVQWKVDNALQSGNSQESVTEQDSKDSTYSLSSTLTLSKADYEKHKVYACEVTHQGLSSPVTKSFNRGEC | 382 | 4060 | 0.0418 µg/mL
5 | DVD3759 (bispecific antibody, human IgG1, kappa, Four-chain DVD-Ig) heavy: not shown light: NTVMTQSPTSMFISVGDRVTMNCKASQNVGSDVDWYQQKTGQSPKLLISGTSNRYTGVPDRFTGSGSGTDFTLTISNMQAEDLAVYYCLQYNYNPTFGAGTKLELKRTVAAPSVFIFPPDVVMTQTPLSLPVSLGDQASISCRSSQSLVHSNGNTYLHWYLQKPGQSPKLLIYKVSNRFSGVPDRFSGSGSGTDFTLKISRVEAEDLGAYFCSQSTHVPYTFGGPTRLEIKRTVAAPSVFIFPPSDEQLKSGTASVVCLLNNFYPREAKVQWKVDNALQSGNSQESVTEQDSKDSTYSLSSTLTLSKADYEKHKVYACEVTHQGLSSPVTKSFNRGEC | 970 | 18600 | 0.0412 µg/mL
6 | DVD3760 (bispecific antibody, human IgG1, kappa, Four-chain DVD-Ig) heavy: not shown light: NTVMTQSPTSMFISVGDRVTMNCKASQNVGSDVDWYQQKTGQSPKLLISGTSNRYTGVPDRFTGSGSGTDFTLTISNMQAEDLAVYYCLQYNYNPTFGAGTKLELKRTVAAPDVVMTQTPLSLPVSLGDQASISCRSSQSLVHSNGNTYLHWYLQKPGQSPKLLIYKVSNRFSGVPDRFSGSGSGTDFTLKISRVEAEDLGAYFCSQSTHVPYTFGGPTRLEIKRTVAAPSVFIFPPSDEQLKSGTASVVCLLNNFYPREAKVQWKVDNALQSGNSQESVTEQDSKDSTYSLSSTLTLSKADYEKHKVYACEVTHQGLSSPVTKSFNRGEC | 302 | 4340 | 0.0353 µg/mL
7 | DVD3752 (bispecific antibody, human IgG1, kappa, Four-chain DVD-Ig) heavy: not shown light: DVVMTQTPLSLPVSLGDQASISCRSSQSLVHSNGNTYLHWYLQKPGQSPKLLIYKVSNRFSGVPDRFSGSGSGTDFTLKISRVEAEDLGAYFCSQSTHVPYTFGGPTRLEIKRTVAAPNTVMTQSPTSMFISVGDRVTMNCKASQNVGSDVDWYQQKTGQSPKLLISGTSNRYTGVPDRFTGSGSGTDFTLTISNMQAEDLAVYYCLQYNYNPTFGAGTKLELKRTVAAPSVFIFPPSDEQLKSGTASVVCLLNNFYPREAKVQWKVDNALQSGNSQESVTEQDSKDSTYSLSSTLTLSKADYEKHKVYACEVTHQGLSSPVTKSFNRGEC | 512 | 12700 | 0.205 µg/mL
8 | DVD3754 (bispecific antibody, human IgG1, kappa, Four-chain DVD-Ig; also called IgM/DNA DVD3754) heavy: not shown light: DVVMTQTPLSLPVSLGDQASISCRSSQSLVHSNGNTYLHWYLQKPGQSPKLLIYKVSNRFSGVPDRFSGSGSGTDFTLKISRVEAEDLGAYFCSQSTHVPYTFGGPTRLEIKRTVAAPSVFIFPPNTVMTQSPTSMFISVGDRVTMNCKASQNVGSDVDWYQQKTGQSPKLLISGTSNRYTGVPDRFTGSGSGTDFTLTISNMQAEDLAVYYCLQYNYNPTFGAGTKLELKRTVAAPSVFIFPPSDEQLKSGTASVVCLLNNFYPREAKVQWKVDNALQSGNSQESVTEQDSKDSTYSLSSTLTLSKADYEKHKVYACEVTHQGLSSPVTKSFNRGEC | 1600 | 35200 | 0.117 µg/mL

From US20150125397A1 (AbbVie / Abbott, published 2015)
